In patent publication US5981483:

Key:
TGF-β2 = assay: SPR (BIAcore); analyte over immobilized cytokine
BMP-4 = assay: SPR (BIAcore); analyte over immobilized cytokine
[1] = target: purified human TGF-β1 (human) (UniProt P01137)
[2] = target: purified human TGF-β1 (human) (UniProt P01137); remark: listed apart in the source

Question: What does the source list for “bovine thyroglobulin (from UniProt P01267)”?
Answer: Kd (TGF-β2): 3800 nM; koff (TGF-β2): 0.005 s⁻¹; kon (TGF-β2): 1300 M⁻¹ s⁻¹; Kd (BMP-4): 20 nM; koff (BMP-4): 0.0011 s⁻¹; kon (BMP-4): 54000 M⁻¹ s⁻¹; percent neutralization of the antiproliferative activity of TGF-β1 (3H-thymidine incorporation, Mv1Lu cells) [1]: 150%; IC50, neutralization of TGF-β1 activity in the Mv1Lu growth inhibition assay [2]: 220 nM
